Laboratory results taken from publication PMC2063460.

Test system: Tus-LPETGG-His6 (sortase-immobilized on glycine-modified GMA beads) (Escherichia coli)
Assay: bead-based fluorescence binding (FACS)
Conditions: 50 mM Tris-HCl, 250 mM KCl, 0.1 mM EDTA, 0.1 mM DTT, pH 9; temperature of binding not stated

Substance: TerB
- Kd: 29 nM
